Reference: paper PMC10506259, “A glycosylated Phr1 protein is induced by calcium stress and its expression is positively controlled by the calcium/calcineurin signaling transcription factor Crz1 in Candida albicans”

T1: 6xHis-Crz1 (CaCrz1) (Candida albicans, UniProt Q5A4H5 1-731)
T1 sequence: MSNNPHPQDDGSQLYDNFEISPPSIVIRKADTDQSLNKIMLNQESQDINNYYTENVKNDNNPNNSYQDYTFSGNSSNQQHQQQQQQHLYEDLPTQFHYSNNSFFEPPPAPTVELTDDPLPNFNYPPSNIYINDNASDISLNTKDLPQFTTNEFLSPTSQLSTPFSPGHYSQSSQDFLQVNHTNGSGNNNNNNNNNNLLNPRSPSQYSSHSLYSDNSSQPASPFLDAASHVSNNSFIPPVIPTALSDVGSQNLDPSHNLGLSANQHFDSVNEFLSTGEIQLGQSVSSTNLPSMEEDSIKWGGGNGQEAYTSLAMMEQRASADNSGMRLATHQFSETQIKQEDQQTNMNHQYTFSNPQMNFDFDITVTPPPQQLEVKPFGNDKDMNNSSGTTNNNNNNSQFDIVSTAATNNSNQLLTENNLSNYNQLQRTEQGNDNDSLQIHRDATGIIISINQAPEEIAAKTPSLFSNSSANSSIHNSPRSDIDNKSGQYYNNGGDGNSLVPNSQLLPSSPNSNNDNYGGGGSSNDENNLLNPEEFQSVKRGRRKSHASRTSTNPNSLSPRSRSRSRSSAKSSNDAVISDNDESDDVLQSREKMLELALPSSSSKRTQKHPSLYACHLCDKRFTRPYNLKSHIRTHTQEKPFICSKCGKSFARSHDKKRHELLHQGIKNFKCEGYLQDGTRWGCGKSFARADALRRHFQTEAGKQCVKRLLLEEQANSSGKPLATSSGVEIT

B1: EMSA_PHR1_F/R (PHR1 promoter CDRE probe) (dsDNA)
DNA 1: CCTTTCTCATAGGAATTCATCGACGCCTCATTCATACTAATATAATAGGT
DNA 2: ACCTATTATATTAGTATGAATGAGGCGTCGATGAATTCCTATGAGAAAGG
B2: unlabelled EMSA_PHR1_F/R (specific competitor) (dsDNA)
DNA 1: B1 DNA 1
DNA 2: B1 DNA 2

Assays:
[1] = molecular target: T1, 6xHis-Crz1 (CaCrz1); test: EMSA; 1 ug protein; DIG Gel Shift Kit (Roche), per manufacturer; buffer, salt, pH and temperature not stated; settings: protein: recombinant; tags: His6; label: DIG at 3' end; blunt
[2] = molecular target: T1, 6xHis-Crz1 (CaCrz1); test: competition; unlabelled probe abolished binding to DIG-labelled N1; 1 ug protein; DIG Gel Shift Kit (Roche), per manufacturer; buffer, salt, pH and temperature not stated; settings: protein: recombinant; tags: His6; blunt

Binder | binding result [1] | binding result [2]
B1 | binds | 
B2 |  | binds
